Entries after “also recorded” stand apart in the source; their conditions may differ. Where two headings read alike, the source gives them in different places.
How the values were obtained:
[1] = test system: PNAG-overproducing E. coli biofilms; assay: Dispersal of pre-formed PNAG-dependent E. coli biofilms; details: for EC50: read-out: EC50 of degradation of pre-formed E. coli biofilm, 60 min, average starting OD595 of 0.5
Procedure: Bacterial cultures expressing Psl were inoculated as stated above and were grown at 37° C. overnight with shaking at 200 rpm. All cultures were diluted in 1:100 in LB and arabinose was added to a final concentration of 0.5% (w/v) to induce Psl biosynthesis. Media containing the Psl-producing cultures were supplemented with 200 μg/mL ampicillin and 100 μg/mL kanamycin. The cultures were incubated statically for 24 h at 26° C. to allow for biofilm formation. After incubation non-adherent cells and media were removed by washing the plate with deionized water three times. The wells were filled with 95 μL of 100 mM sodium HEPES buffer pH 7.0 followed by 5 μL of varying concentrations of each hydrolytic enzyme (2 nM-5 μM). Reactions were allowed to proceed for up to 60 min at 25° C. on a rotating nutator at which time, the reaction was quenched by washing the plates with deionized water. The wells were stained with 200 μL of 0.1% (w/v) crystal violet for 10 min, and washed with water three times. Crystal violet dye from Psi cultures was solubilized in 100 μL of 95% ethanol for 10 min with rotation, after which time the absorbance was measured at 595 nm using a SpectraMax M2 from Molecular Devices (Sunnyvale, Calif.). The amount of biofilm is proportional to the absorbance from staining with crystal violet (Merritt et al 2005). All reactions were completed in at least triplicate and 100 mM sodium HEPES buffer pH 7.0 was used as an untreated control. The addition of 2.5 mg/mL kanamycin to culture prior to biofilm formation was used as a positive control as no cell growth occurs.
PNAG-overproducing E. coli was grown at 37° C. overnight in LB broth supplement with 200 ug/mL ampicillin and 100 ug/mL kanamycin with shaking at 200 rpm. An E. coli μgaABCD knockout strain was used as a non-biofilm forming control for background straining.

[2] = Reducing sugar assay on dPNAG; assay type: biochemical, S. aureus
Procedure: Isolated dPNAG from S. aureus strain MN8m was solubilized in 6 N HCl at ˜10 mg/mL. 10 N NaOH was used to titrate the re-suspension until neutrality was reached, ˜pH 7-8. In a 50 μL reaction, 1 μM BpsB318-670 was incubated with 1-5 mg/mL of dPNAG in 100 mM HEPES pH 7.0 for 18 hours. The sample was split into two 20 μL aliquots and treated with DTT/3-Methyl-2-benzothiazolinone hydrazone hydrochloride hydrate and heated at 80° C. for 15 minutes. A solution of 0.5% (w/w) iron (III) ammonium sulfate dodecahydrate, 0.5% (w/w) sulfamic acid, and 0.25 N hydrochloric acid was added, mixed, and cooled to room temperature. […] Protein and dPNAG in buffer H were used as background controls.

[3] = test system: PNAG-overproducing E. coli; assay: Inhibition of PNAG-dependent E. coli biofilm formation (crystal violet); details: read-out: EC50 of E. coli biofilm formation prevention, static 24 h at 26° C.
Procedure: In brief, PNAG-overproducing E. coli or S. carnosus was grown at 37° C. overnight in LB broth supplement with 200 μg/mL ampicillin and 100 μg/mL kanamycin, and 10 μg/mL tetracycline, respectively, with shaking at 200 rpm. Fresh cultures with antibiotic were prepared from the overnight culture using a 1:100 dilution, using LB broth for E. coli, and tryptic soy broth for S. carnosus. 95 μL of diluted culture was added to a sterile 96-well polystyrene round bottom microtiter plate and varying concentrations of protein (2 nM-5 μM) were added in 5 μL aliquots to give a final volume of 100 μL. The cultures were incubated statically for 24 h at 26° C. for E. coli, and 37° C. for S. carnosus, to allow for biofilm formation. To eliminate edge-effects, ˜200 μL of sterile water was placed in all outside wells and the plate was sealed with parafilm. After incubation non-adherent cells and media were removed by washing the plate with deionized water three times. The wells were stained with 150 μL of 0.1% (w/v) crystal violet for 10 min, and washed with water three times. The remaining dye was solubilized with 100 μL of 33% (v/v) acetic acid for 10 min with rotation, after which time the absorbance was measured at 595 nm using a SpectraMax M2 from Molecular Devices (Sunnyvale, Calif.). […] All reactions were completed in at least triplicates and buffer G was used as an untreated control. Either an E. coli pgaABCD knockout strain (DPGA) or S. carnosus treated with gentamycin, was used as a control for background straining.

[4] = purified protein
[5] = test system: pre-formed A. fumigatus GAG biofilms; assay type: cell-based; details: for dispersal of pre-formed GAG biofilm (in words): crystal violet
[6] = test system: A. fumigatus GAG biofilm; assay: Inhibition of GAG-dependent A. fumigatus biofilm formation (crystal violet); assay type: cell-based
[7] = test system: A549 pulmonary epithelial cell line injured by A. fumigatus; assay: Chromium release epithelial cell damage assay; details: recombinant Sph3 hydrolases, up to 24 h
Procedure: The immortalized airway epithelial cell line A549 was loaded with chromium-51 by incubating monolayers grown in 24-well tissue culture plates with 3 mCi of ^51Cr at 37° C. in 5% CO2 for 24 h. Excess chromium was removed by washing with Hank's Balanced Salt Solution (HBSS). […] For testing germ tubes, conidia were grown for 7 h in SAB media at 37° C., then the fungus was collected and resuspended in DF12K media before 0.5 μM of hydrolase was added. The germ tubes were incubated with hydrolase for 1 h before being added to the A549 cells. After 16, 20 and 24 h of co-incubation, an aliquot of the medium above the cells was retrieved and replaced with fresh media. The cells were then lysed with 6 N NaOH and the lysate collected. The ^51Cr content of the medium and lysates was then measured in a gamma counter and the extent of epithelial cell damage was calculated as a function of the degree of ^51Cr release. Each strain was tested in triplicate, and all results were corrected for spontaneous chromium release by uninfected epithelial cells.
The methodology for prevention of epithelial cell damage caused by A. fumigatus using Sph352-298 is identical to that previously described in Example 19 for the use PelA47-303.

[8] = test system: Psl biofilms of P. aeruginosa PAO1 pBADpsl; assay: Dispersal of pre-formed Psl biofilms (crystal violet); assay type: cell-based, Pseudomonas aeruginosa
[9] = test system: P. aeruginosa PAO1 ΔwspFΔpslpBADpel; assay: Inhibition of Pel biofilm formation in static culture (crystal violet); details: specificity control
[10] = test system: P. aeruginosa PAO1 pBADpsl; assay: Inhibition of Psl biofilm formation in static culture (crystal violet); assay type: cell-based, Pseudomonas aeruginosa
[11] = Reducing sugar assay on purified GAG; assay type: biochemical, A. fumigatus; details: 10-20 μM protein, 26° C., 24 h
Procedure: Crude GAG was isolated from A. fumigatus biofilms. 200 μL GAG aliquots were centrifuged to pellet the gelatinous fraction. The pellets were washed twice with 350 μL PBS. The wash procedure included vortexing for 5 min, sonicated in a bath for 3 min, and manual mixing by pipetting to reach homogeneity. The final pellet was resuspended in 200 μL of PBS. Samples were treated with 10-20 μM protein and incubated at 26° C. Samples were taken at 24 h. GAG hydrolysis was quantified using a reducing sugar assay as described previously (Anthon & Barrett 2002) with slight modifications. Briefly, 20 μL of enzyme reaction was mixed with 20 μL of 0.5 M NaOH and 20 μL of MBTH/DTT solution (1.5 mg/L 3-methyl-2-benzothiazolinone hydrazine (MBTH) and 0.5 mg/L DTT). The samples were incubated at 80° C. for 15 min before the addition of 40 μL of acidic iron reagent (0.5% (FeNH4(SO4)2).12 H2O, 0.5% sulfamic acid, and 0.25 N HCl). Samples were diluted two-fold in water, before the absorbance was quantified at 620 nm.

B1: PgaB22-672: PgaB residues 22-672, E. coli K-12 MG1655, SEQ ID NO: 16 (protein, listed as Escherichia coli)
chain: ISQSRTSFIPPQDRESLLAEQPWPHNGFVAISWHNVEDEAADQRFMSVRTSALREQFAWLRENGYQPVSIAQIREAHRGGKPLPEKAVVLTFDDGYQSFYTRVFPILQAFQWPAVWAPVGSWVDTPADKQVKFGDELVDREYFATWQQVREVARSRLVELASHTWNSHYGIQANATGSLLPVYVNRAYFTDHARYETAAEYRERIRLDAVKMTEYLRTKVEVNPHVFVWPYGEANGIAIEELKKLGYDMFFTLESGLANASQLDSIPRVLIANNPSLKEFAQQIITVQEKSPQRIMHIDLDYVYDENLQQMDRNIDVLIQRVKDMQISTVYLQAFADPDGDGLVKEVWFPNRLLPMKADIFSRVAWQLRTRSGVNIYAWMPVLSWDLDPTLTRVKYLPTGEKKAQIHPEQYHRLSPFDDRVRAQVGMLYEDLAGHAAFDGILFHDDALLSDYEDASAPAITAYQQAGFSGSLSEIRQNPEQFKQWARFKSRALTDFTLELSARVKAIRGPHIKTARNIFALPVIQPESEAWFAQNYADFLKSYDWTAIMAMPYLEGVAEKSADQWLIQLTNQIKNIPQAKDKSILELQAQNWQKNGQHQAISSQQLAHWMSLLQLNGVKNYGYYPDNFLHNQPEIDLIRPEFSTAWYPKND
- EC50 [1]: > 1000 nM
- dPNAG hydrolysis (in words) [2]: hydrolyze dPNAG
- EC50 [3]: ~90 nM

B2: PgaB310-672: PgaB C-terminal hydrolase domain residues 310-672, SEQ ID NO: 17 (protein, listed as Escherichia coli)
chain: EKSPQRIMHIDLDYVYDENLQQMDRNIDVLIQRVKDMQISTVYLQAFADPDGDGLVKEVWFPNRLLPMKADIFSRVAWQLRTRSGVNIYAWMPVLSWDLDPTLTRVKYLPTGEKKAQIHPEQYHRLSPFDDRVRAQVGMLYEDLAGHAAFDGILFHDDALLSDYEDASAPAITAYQQAGFSGSLSEIRQNPEQFKQWARFKSRALTDFTLELSARVKAIRGPHIKTARNIFALPVIQPESEAWFAQNYADFLKSYDWTAIMAMPYLEGVAEKSADQWLIQLTNQIKNIPQAKDKSILELQAQNWQKNGQHQAISSQQLAHWMSLLQLNGVKNYGYYPDNFLHNQPEIDLIRPEFSTAWYPKND
- EC50 [1]: 200 nM
- concentration to which the protein could be concentrated [4]: 8000 to 10000 µg/mL
- dPNAG hydrolysis (in words) [2]: hydrolyze dPNAG
- EC50 [3]: ~230 nM

B3: BpsB27-701: full-length BpsB residues 27-701, B. bronchiseptica RB50, SEQ ID NO: 18 (protein, listed as Bordetella bronchiseptica)
chain: YKVDMLPPPDPDDGLTFRVLCMHDVRDNLRASFADMPDQFAIETRTLTDLFEWIRVKGFNPISMQQIIDSRAGVRPLPPRPILLTFDDGYASTYTKVFPLLKKFNYPAVVAVVTSWTDAPAGTKIRLSPKIEVPHDFFMTWAQLREMAQSGLVELASHSHNLHRGVLANPQGNEQPAASSRQYLPASGRYENDAEYRARVRQDLKTSADLIREHTGVTIRSIVWPYGAHNRDTDQVAAEVGLNIGLTLQPGPNTPDVALTQIRRSLVDYEVNVATVARAMREPVSYHGQVRPIERIVQVDLDYIYDPDPEQQNRNLGQLIDRMKDLAPSAVYLQAFADPKGDGDITEVYFPNRHLPMRADLFNRVAWQLKTRAGVMVYAWLPVLTFSVPPGNPAYGKVVQSTTRKPGERGLGSPTRLSPFHPDAHRVISEIYEDLAKAAHFDGLLFHDDAVLDDTEDSSPEALATYQGWGLPPDIAAIRADPKLAQQWSKGKIRYLIDFTMHLRHIVSGYQNDRDMVVARNLYAQPVLDPVSEAWYGQSLPEFLKSYDFVALMAMPNMEGAARPEQWMRQLVAAVARQKGLDRTIFELQARDWRVGKPIDTEILRRQMVQLRSLGAINYGYYPDDFIANHPDAEALRDVMSLKSTLEKRRLTKAQELSRQTTLYGSASQAEPTQR
- EC50 [1]: ~170 nM
- dPNAG hydrolysis (in words) [2]: hydrolyze dPNAG
- EC50 [3]: ~40 nM

B4: GmetPelA23-277: PelA ortholog, residues 23-277, from Geobacter metallireducens, SEQ ID NO: 14 (protein, listed as Geobacter metallireducens)
chain: PPLSVALYYGKQPPVNDLHAFDIVVIDPDSGLTPSEYGSGRSELFAYVSVGEADTARSYTKQMPDRWIIGKNPVWKSKIVDVSSEEWKQFFLDDVVEPLWQAGYRGFFLDTLDSYLIAAPTEAHPRMEAGLVSVVRAIRQRHPEARLILNRGFEIFDRVKDLVYAVAAESLFQNFNTVSGKYGAVDDKDRSWLTSRLNVIRETGVPVIAIDYVDPGNRPLMRETADKIRSLGFTPWVTDKDLAGLGIGSVEVMPRTVLGLYDGGEGAG
- dispersal of pre-formed GAG biofilm (in words) [5]: less efficacious
- dispersal of pre-formed GAG biofilm (in words) ([5]; listed as GmPelA23-277): less effective at eliminating GAG biofilms

B5: Sph3AN(43-299): Sph3 ortholog residues 43-299, Aspergillus nidulans FGSC A4, SEQ ID NO: 23 (protein)
chain: RRKNNNMGPKAKVFVPLYVYPAPGAWDPLVNVITAHPDVNFTVVVNPGSGPGPNPLPDRNYTQEIPRLTAHDNVRVLGYVATTYAKRNISSVRNDIETYAAWPTISANPKLAVRGIFFDETPQQYNASDLAYLEELTSVVKNTPGLGPDHFVFHNPGVVPDPRYLSTADSTVVFEATYDTFQDRDGARLFETIPNSNRSQLCAVVHSVPDSVEGSELRKFVKQARRVADEIFVTHLSTNYYASFGDKWDDFVRLMAQ
modifications: Aspergillus nidulans
- inhibition of A. fumigatus biofilm formation by recombinant Sph3 (in words) [6]: inhibit the formation of A. fumigatus biofilms in a dose dependent manner
- epithelial cell damage by A. fumigatus, chromium release [7]: completely protected epithelial cells from damage by A. fumigatus for 24 h
- epithelial cell damage by A. fumigatus, chromium release ([7]; listed as Sph3 from A. nidulans): reduced fungal damage to epithelial cells

B6: PslG31-442: soluble PslG glycosyl hydrolase construct, residues 31-442, P. aeruginosa PAO1, SEQ ID NO: 11 (protein, listed as Pseudomonas aeruginosa)
chain: EIQVLKAPRAVVWKDFLGVNAQFLWFSPERYNKQIDRLQDLGLEWVRLDLHWDRLETAEDQYQLASLDQLVKDLEARQLKSVFYLVGSARFITTAPFYSPFQDQYPPRDPEVFARRMAMLSQRYPSVAAWQVWNEPNLIGFWRPKADPEGYAKLLQASTIALRMVDPEKPVVSAGMAFFSEMPDGRTMFDALGHLGVESLGTIATYHPYTQLPEGNYPWNLDFVSHANQINRALRNAGVPAIWSTEWGWSAYKGPKELQDIIGVEGQADYVLRRLALMSALDYDRIFLFTLSDLDQRASVRDRDYGLLDLDANPKPVYLALQRFLKVTGPKLRPADPPVTEDLPDGSFSIGWTREDGRNVWLFWSARGGNVRLPKLKEATLHDPLSGKVTPLSGSDGLEVPVKSSLQMLVWE
- time to disperse pre-formed Psl biofilm ([8]; 58 nM enzyme): 30 min
- time to disperse / completely abolish pre-formed Psl biofilm ([8]; 86 nM enzyme): 35 min
- effect on pre-formed Psl biofilm ([8]; 86 nM enzyme, after 20 min): significant reduction of the biofilm
- inhibition of Pel biofilm formation (in words) [9]: did not inhibit Pel biofilm formation; also recorded: unable at preventing biofilm formation
- effect on PAO1 growth ([10]; 10 μM enzyme): did not prevent PAO1 growth
- EC50 ([10]; PAO1 pBADpsl, static 24 h at 26° C., crystal violet): 4.1 ± 1.1 nM
- dispersal of PNAG-dependent biofilms (in words) [1]: had no affect
- concentration to which the protein could be concentrated [4]: 8000 to 10000 µg/mL

B7: Sph352-298: soluble Sph3 residues 52-298, Aspergillus fumigatus Af293, SEQ ID NO: 20 (protein, listed as Aspergillus fumigatus)
chain: SKVFVPLYVYPAPGAWTPLEDVISKHPDVNFTVVINPGSGPGPNALPDGNYTREIPKLASYENVRLLGYVATTYAKRNISLVRRDIETYAAWPTNSSNPALAVRGIFFDETPQQYDEDALAYLQELTDVVKNTPGLGPDHYVVHNPGAIPDSRYLSTADSTVVFEATYDTFQERHGAKLFEAIPDSNRSQLCAVIHSVPESVEGSALRSLVKQVRKVADEIFITHLDTDYYASFGRQWPEFVDLMGK
- GAG hydrolysis, reducing ends (in words) [11]: number of reducing ends in solution increased
- concentration to which the protein could be concentrated [4]: 8000 to 10000 µg/mL
- activity against preformed biofilms of multiple A. fumigatus strains / clinical isolates [5]: dose-dependent activity; also recorded: active against multiple strains of A. fumigatus
- concentration sufficient at preventing GAG biofilm formation ([5]; FIG. 36, crystal violet): 280 nM
- dispersal of pre-formed GAG biofilm (in words) [5]: elimination of the GAG biofilms; also recorded: capable of disrupting GAG-dependent biofilms
- inhibition of A. fumigatus biofilm formation by recombinant Sph3 (in words) [6]: inhibit the formation of A. fumigatus biofilms in a dose dependent manner
- epithelial cell damage by A. fumigatus, chromium release [7]: reduced fungal damage to epithelial cells

From patent US11672846B2, “Soluble bacterial and fungal proteins and methods and uses thereof in inhibiting and dispersing biofilm” (priority 2014, dated 2023)
